Assay results published in FireProtDB (doi:10.1111/j.1432-1033.1988.tb14214.x).

Settings: Bos taurus; pH 7.1; 25 °C; Urea; CD; PIPES 20 mM; reversible: yes; whole UniProt chain shown

B1: Protein S100-G wild type, P02633 (protein)
chain: MSAKKSPEELKGIFEKYAAKEGDPNQLSKEELKLLLQTEFPSLLKGPSTLDELFEELDKNGDGEVSFEEFQVLVKKISQ
In the case of B1, the denaturant m value is reported as 0.91 kcal/mol/M, the “denaturant midpoint (higher = more stable)” value is reported as 5.2 M and the unfolding free energy is reported as 4.78 kcal/mol.
